Results as given in EP4613859A1, “TLR SIGNALING INHIBITORY PEPTIDE AND COMPOSITION INCLUDING SAME FOR PREVENTION OR TREATMENT OF INFLAMMATORY DISEASES” (Korea Institute of Science and Technology, priority 2022, dated 2025).
Blank lines part the entries; values can stand above or below the binder they belong to.

Columns and labels:
human MAL (human) [1] = target: human MAL (human) (UniProt P58753); experiment: P8 phage display panning on plate-immobilised MAL, after round 4, NGS
human MAL (human) [2] = target: human MAL (human) (UniProt P58753); experiment: P3 phage display panning on plate-immobilised MAL, after round 4, NGS
human MyD88 (human) [3] = target: human MyD88 (human) (UniProt Q99836); experiment: P3 phage display panning on plate-immobilised MyD88, after round 4, NGS
UniProt Q99836, sequence (Q99836 155-296 limits assumed): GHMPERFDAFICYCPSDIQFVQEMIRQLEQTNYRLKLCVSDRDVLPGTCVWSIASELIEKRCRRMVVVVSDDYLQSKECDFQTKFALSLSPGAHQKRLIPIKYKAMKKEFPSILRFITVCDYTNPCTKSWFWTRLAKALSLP

human MyD88 (human) [4] = target: human MyD88 (human) (UniProt Q99836); experiment: P8 phage display panning on plate-immobilised MyD88, after round 4, NGS

UniProt P58753, sequence (P58753 79-221 limits assumed): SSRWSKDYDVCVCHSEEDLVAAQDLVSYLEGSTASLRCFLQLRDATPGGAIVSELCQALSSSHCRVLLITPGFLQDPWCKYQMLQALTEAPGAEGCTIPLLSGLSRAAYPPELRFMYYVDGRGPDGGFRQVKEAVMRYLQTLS

NGS count (human MAL (human) [1]): 28000 count
Population (human MAL (human) [1]): 8.63%
B1: … (peptide)
peptide: RNFVAYLFQALANKGI

NGS count (human MAL (human) [1]): 848 count
Population (human MAL (human) [1]): 0.26%
NGS count (human MAL (human) [2]): 25800 count
Population (human MAL (human) [2]): 9.71%
NGS count (human MyD88 (human) [3]): 28700 count
Population (human MyD88 (human) [3]): 8.35%
B2: … (peptide)
peptide: NQWRNALTAAANLSGW

NGS count (human MAL (human) [1]): 5620 count
Population (human MAL (human) [1]): 1.74%
NGS count (human MyD88 (human) [3]): 2460 count
Population (human MyD88 (human) [3]): 0.72%
B3: … (peptide)
peptide: DTKLKKGESIAPELLR

NGS count (human MAL (human) [1]): 227 count
Population (human MAL (human) [1]): 0.07%
B4: … (peptide)
peptide: WALQELVKILQAKIFL

NGS count (human MAL (human) [1]): 232 count
Population (human MAL (human) [1]): 0.07%
B5: … (peptide)
peptide: AWALHQLQQIINWHET

NGS count (human MAL (human) [1]): 146 count
Population (human MAL (human) [1]): 0.05%
B6: … (peptide)
peptide: KFIWDIINAISSQIRV

NGS count (human MAL (human) [1]): 9390 count
Population (human MAL (human) [1]): 2.9%
NGS count (human MyD88 (human) [4]): 1600 count
Population (human MyD88 (human) [4]): 0.62%
B7: … (peptide)
peptide: QLIQQWIELHLHQLHL

NGS count (human MAL (human) [1]): 28800 count
Population (human MAL (human) [1]): 8.9%
B8: … (peptide)
peptide: AFFWAQLKSVLGNPTM

NGS count (human MAL (human) [1]): 517 count
Population (human MAL (human) [1]): 0.19%
NGS count (human MAL (human) [2]): 1680 count
Population (human MAL (human) [2]): 0.63%
NGS count (human MyD88 (human) [3]): 7320 count
Population (human MyD88 (human) [3]): 2.13%
B9: … (peptide)
peptide: YLKWGYPWFWDRLRFA
